This is an account of results in patent publication US20100136580A1 (Genentech, published 2010).

The test deals with T1, GST-Dvl2PDZ fusion protein (human, UniProt O14641 248-364).
T1 construct: range 248-364; Made with the pGEX E. coli expression system; also called GST-PDZ fusion protein; not shown: glutathione S-transferase (GST) encoded by plasmid pGEX
T1 sequence (looked up): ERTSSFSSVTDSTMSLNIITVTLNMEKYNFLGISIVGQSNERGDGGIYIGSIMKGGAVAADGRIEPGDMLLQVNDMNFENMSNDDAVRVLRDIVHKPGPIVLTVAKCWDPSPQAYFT
As to the kind of experiment: phage display selection on GST-Dvl2PDZ. The method, then:
The libraries were cycled through rounds of binding selection with a GST-Dvl2PDZ fusion protein coated on 96-well Maxisorp immunoplates as the capture target. Phage were propagated in E. coli XL1-blue with M13-KO7 helper phage and 10 μM IPTG. After four rounds of binding selection, individual phage clones were analyzed in a high-throughput phage ELISA, and positive clones were subjected to DNA sequence analysis.
We used decapeptide libraries fused to the C-terminus or N-terminus of the phage coat protein. The library contained NNK degenerate codons that encoded all 20 natural amino acids. The possible occurrence of amber stop codons in the degenerate codon also provided for the display of shorter peptides for the C-terminal library. Each library was cycled through four rounds of binding selection with immobilized GST-Dvl2PDZ fusion protein as the capture target.

B1: SEQ ID NO 11 (peptide)
peptide: NRWRLLGWF
Consider B1, for which the binding result is on record as “binds”.

B2: SEQ ID NO 158 (peptide)
peptide: VPTWIDGPCVD
B2: the binding result is given as “binds”.

B3: SEQ ID NO 154 (peptide)
peptide: LTEIWIDGWP
Regarding B3, the binding result is “binds”.

B4: SEQ ID NO 161 (peptide)
peptide: TTEVWVDWPM
In the case of B4, the binding result is “binds”.

B5: SEQ ID NO 13 (peptide)
peptide: FWIYKYYGRF
In the case of B5, the binding result is given as “binds”.

B6: SEQ ID NO 8 (peptide)
peptide: TSSWKWYGWL
For B6, the binding result is recorded as “binds”.

B7: SEQ ID NO 157 (peptide)
peptide: NEVWIDGPGQ
For B7, the binding result was “binds”.

B8: SEQ ID NO 159 (peptide)
peptide: NEVWIDGPGI
Turning to B8, the binding result was “binds”.

B9: SEQ ID NO 7 (peptide)
peptide: IVRWTLLGIF
On to B9, for which the binding result is given as “binds”.

B10: SEQ ID NO 43 (peptide)
peptide: DIVLTNYGWIGGG
On to B10, for which the binding result is listed as “binds”.

B11: SEQ ID NO 20 (peptide)
peptide: LLFLKYYGWL
Turning to B11, the binding result is “binds”.

B12: SEQ ID NO 40 (peptide)
peptide: ELRWHDYGWIGGG
For the molecule B12, the binding result was “binds”.

B13: SEQ ID NO 37 (peptide)
peptide: RPFCTFLGWF
B13: the binding result is on record as “binds”.

B14: SEQ ID NO 32 (peptide)
peptide: TPLYNYFGGL
In the case of B14, the binding result is on record as “binds”.

B15: SEQ ID NO 15 (peptide)
peptide: AVRWLFLGWF
As for B15, the binding result is “binds”.

B16: SEQ ID NO 151 (peptide)
peptide: GEMWVDGPCL
With B16, the binding result is “binds”.

B17: SEQ ID NO 9 (peptide)
peptide: PRIFKDYGMF
As to B17, the binding result was “binds”.

B18: SEQ ID NO 162 (peptide)
peptide: GEMWVDGPCL
As for B18, the binding result is on record as “binds”.

B19: SEQ ID NO 6 (peptide)
peptide: NKRYTVLGWF
As for B19, the binding result is given as “binds”.

B20: SEQ ID NO 26 (peptide)
peptide: SHFKFFGWF
On to B20, for which the binding result was “binds”.

B21: SEQ ID NO 153 (peptide)
peptide: ETWIDGPMYT
Consider B21, for which the binding result was “binds”.

B22: SEQ ID NO 24 (peptide)
peptide: NWKWYGFF
Regarding B22, the binding result is listed as “binds”.

B23: SEQ ID NO 30 (peptide)
peptide: KFLGWF
With B23, the binding result is given as “binds”.

B24: SEQ ID NO 28 (peptide)
peptide: SPRFTFLGWF
Consider B24, for which the binding result was “binds”.

B25: SEQ ID NO 19 (peptide)
peptide: SISYWFYGWL
Consider B25, for which the binding result was “binds”.

B26: SEQ ID NO 34 (peptide)
peptide: RTRFTCFGWF
As to B26, the binding result is reported as “binds”.

B27: SEQ ID NO 45 (peptide)
peptide: QTIWKDYGIIGGG
For the molecule B27, the binding result was “binds”.

B28: SEQ ID NO 16 (peptide)
peptide: RSGHRFLGWF
Turning to B28, the binding result is recorded as “binds”.

B29: SEQ ID NO 42 (peptide)
peptide: EWSHVYYGWLGGG
Consider B29, for which the binding result is “binds”.

B30: SEQ ID NO 146 (peptide)
peptide: SLLTIWSDIP
In the case of B30, the binding result is listed as “binds”.

B31: SEQ ID NO 31 (peptide)
peptide: YFFYGWF
With B31, the binding result was “binds”.

B32: SEQ ID NO 144 (peptide)
peptide: EMDLLWTDIP
For B32, the binding result is given as “binds”.

B33: SEQ ID NO 10 (peptide)
peptide: YWTRTFYGFF
Consider B33, for which the binding result is reported as “binds”.

B34: SEQ ID NO 18 (peptide)
peptide: TSFLKGYGWL
For the molecule B34, the binding result was “binds”.

B35: SEQ ID NO 39 (peptide)
peptide: ITRYTFFGFF
Consider B35, for which the binding result is listed as “binds”.

B36: SEQ ID NO 25 (peptide)
peptide: YTFFGWF
Take B36: the binding result is given as “binds”.

B37: SEQ ID NO 160 (peptide)
peptide: AEQWIDGPHL
In the case of B37, the binding result is “binds”.

B38: SEQ ID NO 166 (peptide)
peptide: TIWWDYGAI
In the case of B38, the binding result was “binds”.

B39: SEQ ID NO 147 (peptide)
peptide: TWIDGPYLLQ
In the case of B39, the binding result is recorded as “binds”.

B40: SEQ ID NO 14 (peptide)
peptide: DRIRFLGWF
Turning to B40, the binding result was “binds”.

B41: SEQ ID NO 156 (peptide)
peptide: PEVWIDGPESG
Regarding B41, the binding result is recorded as “binds”.

B42: SEQ ID NO 35 (peptide)
peptide: MTKWIWYGWL
For B42, the binding result was “binds”.

B43: SEQ ID NO 29 (peptide)
peptide: RIVSFFYGWL
Take B43: the binding result is reported as “binds”.

B44: SEQ ID NO 23 (peptide)
peptide: TWRVLGWF
Turning to B44, the binding result is given as “binds”.

B45: SEQ ID NO 22 (peptide)
peptide: NVFRFFGWL
Turning to B45, the binding result was “binds”.

B46: SEQ ID NO 38 (peptide)
peptide: SWYFKFYGWL
Turning to B46, the binding result is recorded as “binds”.

B47: SEQ ID NO 44 (peptide)
peptide: TVVWHDYGWIGGG
Turning to B47, the binding result is listed as “binds”.

B48: SEQ ID NO 145 (peptide)
peptide: NLERWSDIPM
For B48, the binding result is “binds”.

B49: SEQ ID NO 33 (peptide)
peptide: TVRWVFFGFF
On to B49, for which the binding result is on record as “binds”.

B50: SEQ ID NO 150 (peptide)
peptide: MMWIDGPLAS
Regarding B50, the binding result is listed as “binds”.

B51: SEQ ID NO 165 (peptide)
peptide: QTIWKDYGII
B51: the binding result is “binds”.

B52: SEQ ID NO 21 (peptide)
peptide: STRHYRTWWF
Consider B52, for which the binding result is on record as “binds”.

B53: SEQ ID NO 36 (peptide)
peptide: RISWTFLGYF
In the case of B53, the binding result was “binds”.

B54: SEQ ID NO 152 (peptide)
peptide: ERWIDYGYIL
In the case of B54, the binding result is on record as “binds”.

B55: SEQ ID NO 17 (peptide)
peptide: SWKLLGFF
Take B55: the binding result is listed as “binds”.

B56: SEQ ID NO 27 (peptide)
peptide: NRIPCLGGW
With B56, the binding result is “binds”.

B57: SEQ ID NO 12 (peptide)
peptide: TSWCKWYGWL
As for B57, the binding result is “binds”.

B58: SEQ ID NO 5 (peptide)
peptide: SWWNKCYGWF
On to B58, for which the binding result is on record as “binds”.

B59: SEQ ID NO 41 (peptide)
peptide: QAVYKNYGWIGGG
As for B59, the binding result is on record as “binds”.

B60: SEQ ID NO 148 (peptide)
peptide: VWGDSFEGRP
As for B60, the binding result was “binds”.

B61: SEQ ID NO 149 (peptide)
peptide: PEVWIDGPEI
Take B61: the binding result was “binds”.

B62: SEQ ID NO 164 (peptide)
peptide: AEVWVDGPYI
As to B62, the binding result was “binds”.
